The source of these data is patent publication US20170283479.

The target of series [1] is insulin analogs where the A-chain is derived from the native insulin sequence.
Series [2] concerns the target analogs where the A-chain is derived from the sequence of IGF-1.

B1: rDNA rat insulin-specific degrading enzyme (IDE) (protein)
chain: MNNPAIQRIEDHIVKSPEDKREYRGLELANGIKVLLISDPTTDKSSAALDVHIGSLSDPPNIPGLSHFCEHMLFLGTKKYPKENEYSQFLSEHAGSSNAFTSGEHTNYYFDVSHEHLEGALDRFAQFFLCPLFDASCKDREVNAVDSEHEKNVMNDAWRLFQLEKATGNPKHPFSKFGTGNKYTLETRPNQEGIDVREELLKFHSTYYSSNLMAICVLGRESLDDLTNLVVKLFSEVENKNVPLPEFPEHPFQEEHLKQLYKIVPIKDIRNLYVTFPIPDLQQYYKSNPGHYLGHLIGHEGPGSLLSELKSKGWVNTLVGGQKEGARGFMFFIINVDLTEEGLLHVEDIILHMFQYIQKLRAEGPQEWVFQECKDLNAVAFRFKDKERPRGYTSKIAGKLHYYPLNGVLTAEYLLEEFRPDLIDMVLDKLRPENVRVAIVSKSFEGKTDRTEQWYGTQYKQEAIPEDVIQKWQNADLNGKFKLPTKNEFIPTNFEILALEKDATPYPALIKDTAMSKLWFKQDDKFFLPKACLNFEFFSPFAYVDPLHCNMAYLYLELLKDSLNEYAYAAELAGLSYDLQNTIYGMYLSVKGYNDKQPILLKKITEKMATFEIDKKRFEIIKEAYMRSLNNFRAEQPHQHAMYYLRLLMTEVAWTKDELKEALDDVTLPRLKAFIPQLLSRLHIEALLHGNITKQAALGVMQMVEDTLIEHAHTKPLLPSQLVRYREVQLPDRGWFVYQRRNEVHNNCGIEIYYQTDMQSTSENMFLELFCQIISEPCFNTLRTKEQLGYIVFSGPRRANGIQGLRFIIQSEKPPHYLESRVEAFLITMEKAIEDMTEEAFQKHIQALAIRRLDKPKKLSAECAKYWGEIISQQYNYDRDNIEVAYLKTLSKDDIIKFYKEMLAVDAPRRHKVSVHVLAREMDSCPVVGEFPSQNDINLSEAPPLPQPEVIHNMTEFKRGLPLFPLVKPHINFMAAKL
Regarding B1, the “cleavage by IDE (HPLC and residual insulin receptor phosphorylation activity)” value in series [1] was “extremely robust and easily detected”; in series [2], “appear to be extremely resistant to proteolysis”.
